Reference: PMC6934973 (Iranian Journal of Pharmaceutical Research : IJPR, 2019)

Experiment: Parallel Artificial Membrane Permeability Assay (PAMPA)
Assay type: in vitro ADME
Conditions: for Papp: read-out: Pe × 10-6 (cm/s), effective permeability; for permeability compared to norbuprenorphine-Leu-enkephalin: result in words
[1] = 200 μM, pH 7.4, 20% 1-propanol cosolvent, 4 h
[2] = 200 μM, pH 7.4, 20% 1-propanol cosolvent, 4 h, room temperature

## CC(C)C[C@H](NC(=O)[C@H](Cc1ccccc1)NC(=O)CNC(=O)CNC(=O)[C@@H](N)Cc1ccc(O)cc1)C(=O)O [Standard Leu-enkephalin, Leu-enkephalin, reference compound]
[1]
  % PAMPA Transport after 4h: 0.8%
[2]
  %Membrane retention: 0%
  Papp: 0.38 ×10⁻⁶ cm/s

## CO[C@]12CC[C@@]3(CC1=C(C)C(C)(C)C)[C@H]1Cc4ccc(O)c5c4[C@@]3(CCN1C(=O)CCC(=O)N[C@@H](Cc1ccc(O)cc1)C(=O)NCC(=O)NCC(=O)N[C@@H](Cc1ccccc1)C(=O)N[C@@H](CC(C)C)C(=O)O)[C@H]2O5 [Compound 23]
[1]
  % PAMPA Transport after 4h: 1.2%
[2]
  %Membrane retention: 0%
  Papp: 0.63 ×10⁻⁶ cm/s
  permeability compared to norbuprenorphine-Leu-enkephalin: lower permeability

## CO[C@]12CC[C@@]3(C/C1=C(/C)C(C)(C)C)[C@H]1Cc4ccc(O)c5c4[C@@]3(CCN1C(=O)[C@H](CC(C)C)NC(=O)[C@H](Cc1ccccc1)NC(=O)CNC(=O)CNC(=O)[C@@H](N)Cc1ccc(O)cc1)[C@H]2O5 [Compound 17]
[1]
  % PAMPA Transport after 4h: 6.8%
[2]
  %Membrane retention: 10.3%
  Papp: 3.46 ×10⁻⁶ cm/s

## CO[C@]12CC[C@@]3(CC1=C(C)C(C)(C)C)[C@H]1Cc4ccc(O)c5c4[C@@]3(CCN1C(=O)c1ccccc1C(=O)N[C@@H](Cc1ccc(O)cc1)C(=O)NCC(=O)NCC(=O)N[C@@H](Cc1ccccc1)C(=O)N[C@@H](CC(C)C)C(=O)O)[C@H]2O5 [Compound 24]
[1]
  % PAMPA Transport after 4h: 1.9%
[2]
  %Membrane retention: 0%
  Papp: 0.92 ×10⁻⁶ cm/s
  permeability compared to norbuprenorphine-Leu-enkephalin: lower permeability

## CSCC[C@H](NC(=O)[C@H](Cc1ccccc1)NC(=O)CNC(=O)CNC(=O)[C@@H](N)Cc1ccc(O)cc1)C(=O)O [Standard Met-enkephalin, Met-enkephalin, reference compound]
[1]
  % PAMPA Transport after 4h: 0.2%
[2]
  %Membrane retention: 0%
  Papp: 0.09 ×10⁻⁶ cm/s

## CC(C)NCC(O)COc1cccc2ccccc12 (centres unmarked) [Propanolol, reference compound]
[1]
  % PAMPA Transport after 4h: 9.9%
[2]
  %Membrane retention: 21.8%
  Pe × 10-6 (cm/s), effective permeability: 5.23 × 10-6 cm/s

## CO[C@]12CC[C@@]3(C/C1=C(\C)C(C)(C)C)[C@H]1Cc4ccc(O)c5c4[C@@]3(CCN1C(=O)[C@H](CC(C)C)NC(=O)[C@H](Cc1ccccc1)NC(=O)CNC(=O)CNC(=O)[C@@H](N)Cc1ccc(O)cc1)[C@H]2O5 [Compound 18]
[1]
  % PAMPA Transport after 4h: 4.3%
[2]
  %Membrane retention: 30.9%
  Papp: 2.13 ×10⁻⁶ cm/s

## COc1ccc2c3c1O[C@@H]1[C@]34CCN(C(=O)[C@H](CCSC)NC(=O)[C@H](Cc3ccccc3)NC(=O)CNC(=O)CNC(=O)[C@@H](N)Cc3ccc(O)cc3)[C@H](C2)[C@]42CC[C@@]1(OC)/C(=C(/C)C(C)(C)C)C2 [Compound 15]
[1]
  % PAMPA Transport after 4h: 2.9%
[2]
  %Membrane retention: 0%
  Papp: 1.42 ×10⁻⁶ cm/s

## COc1ccc2c3c1O[C@@H]1[C@]34CCN(C(=O)[C@H](CCSC)NC(=O)[C@H](Cc3ccccc3)NC(=O)CNC(=O)CNC(=O)[C@@H](N)Cc3ccc(O)cc3)[C@H](C2)[C@]42CC[C@@]1(OC)/C(=C(\C)C(C)(C)C)C2 [Compound 14]
[1]
  % PAMPA Transport after 4h: 1.6%
[2]
  %Membrane retention: 0%
  Papp: 0.77 ×10⁻⁶ cm/s
